Measured values reported in patent US20080219970.

T1: Ir-CPI (Ixodes ricinus Contact Phase Inhibitor), recombinant, without its peptide signal
T1 chain: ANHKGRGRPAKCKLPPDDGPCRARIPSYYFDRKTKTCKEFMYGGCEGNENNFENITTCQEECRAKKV


Target: T1, Ir-CPI (Ixodes ricinus Contact Phase …)

Row | Protein | activation of factor XI into factor XIa by factor XIIa, reconstituted system with purified factors, chromogenic substrate | activation of prekallikrein into kallikrein by factor XIIa, reconstituted system with purified factors, chromogenic substrate | amidolytic activity (chromogenic substrate S-2302), protease preincubated with Ir-CPI at 1:5 molar ratio | amidolytic activity (chromogenic substrate S-2222), protease preincubated with Ir-CPI at 1:5 molar ratio
1 | factor XIIa (protein) IPPWEAPKEHKYKAEEHTVVLTVTGEPCHFPFQYHRQLYHKCTHKGRPGPQPWCATTPNFDQDQRWGYCLEPKKVKDHCSKHSPCQKGGTCVNMPSGPHCLCPQHLTGNHCQKEKCFEPQLLRFFHKNEIWYRTEQAAVARCQCKGPDAHCQRLASQACRTNPCLHGGRCLEVEGHRLCHCPVGYTGAFCDVDTKASCYDGRGLSYRGLARTTLSGAPCQPWASEATYRNVTAEQARNWGLGGHAFCRNPDNDIRPWCFVLNRDRLSWEYCDLAQCQTPTQAAPPTPVSPRLHVPLMPAQPAPPKPQPTTRTPPQSQTPGALPAKREQPPSLTRNGPLSCGQRLRKSLSSMTRVVGGLVALRGAHPYIAALYWGHSFCAGSLIAPCWVLTAAHCLQDRPAPEDLTVVLGQERRNHSCEPCQTLAVRSYRLHEAFSPVSYQHDLALLRLQEDADGSCALLSPYVQPVCLPSGAARPSETTLCQVAGWGHQFEGAEEYASFLQEAQVPFLSLERCSAPDVHGSSILPGMLCAGFLEGGTDACQGDSGGPLVCEDQAAERRLTLQGIISWGSGCGDRNKPGVYTDVAYYLAWIREHTVS | Ir-CPI inhibits ... the activation of factor XI into factor XIa by factor XIIa | Ir-CPI inhibits the activation of prekallikrein into kallikrein by factor XIIa | The results obtained did not show any effect of Ir-CPI protein on the amidolytic activity of these factors | –
2 | factor Xa (protein) chain 1: ANSFLEEMKKGHLERECMEETCSYEEAREVFEDSDKTNEFWNKYKDGDQCETSPCQNQGKCKDGLGEYTCTCLEGFEGKNCELFTRKLCSLDNGDCDQFCHEEQNSVVCSCARGYTLADNGKACIPTGPYPCGKQTLER chain 2: IVGGQECKDGECPWQALLINEENEGFCGGTILSEFYILTAAHCLYQAKRFKVRVGDRNTEQEEGGEAVHEVEVVIKHNRFTKETYDFDIAVLRLKTPITFRMNVAPACLPERDWAESTLMTQKTGIVSGFGRTHEKGRQSTRLKMLEVPYVDRNSCKLSSSFIITQNMFCAGYDTKQEDACQGDSGGPHVTRFKDTYFVTGIVSWGEGCARKGKYGIYTKVTAFLKWIDRSMKTRGLPKAKSHAPEVITSSPLK | – | – | – | The results obtained did not show any effect of Ir-CPI protein on the amidolytic activity of these factors
